According to article PMC5871853, “First insights of peptidoglycan amidation in Gram-positive bacteria - the high-resolution crystal structure of Staphylococcus aureus glutamine amidotransferase GatD” (Scientific Reports, 2018):
Changes are numbered by the printed parent chain.

B1: S. aureus MurT (enzyme, Staphylococcus aureus strain COL, UniProt A0A0H2WZQ7 1-437, looked up)
chain: MRQWTAIHLAKLARKASRAVGKRGTDLPGQIARKVDTDILRKLAEQVDDIVFISGTNGKTTTSNLIGHTLKANNIQIIHNNEGANMAAGITSAFIMQSTPKTKIAVIEIDEGSIPRVLKEVTPSMMVFTNFFRDQMDRFGEIDIMVNNIAETISNKGIKLLLNADDPFVSRLKIASDTIVYYGMKAHAHEFEQSTMNESRYCPNCGRLLQYDYIHYNQIGHYHCQCGFKREQAKYEISSFDVAPFLYLNINDEKYDMKIAGDFNAYNALAAYTVLRELGLNEQTIKNGFETYTSDNGRMQYFKKERKEAMINLAKNPAGMNASLSVGEQLEGEKVYVISLNDNAADGRDTSWIYDADFEKLSKQQIEAIIVTGTRAEELQLRLKLAEVEVPIIVERDIYKATAKTMDYKGFTVAIPNYTSLAPMLEQLNRSFEGGQS
notes: MurT, Mur ligase family member of the MurT-GatD complex, Staphylococcus aureus strain COL; coding region amplified with gatD as the murT-gatD operon

Experiments:
[1] = biological target: S. aureus MurT-GatD complex (Staphylococcus aureus, UniProt A0A0H2WZ38); conditions: 875 µM Gln, 35 µM complex, no lipid II; 50 mM Tris-d11, 500 mM NaCl, 10 mM MgCl2, pH meter reading 7.9 in D2O, 293 K
S. aureus GatD = biological target: T1, S. aureus GatD (Staphylococcus aureus, UniProt A0A0H2WZ38); assay: X-ray crystal structure, […] Å; assay type: binding; conditions: co-purified glutamine; bound at surface of chain A to R128, outside the active site; MurT absent
T1 construct: full-length, 243 residues; pOPINF vector, E. coli Lemo21(DE3), IMAC and SEC; crystallised without MurT; dimer in crystal non-physiological
T1 sequence (A0A0H2WZ38 1-243): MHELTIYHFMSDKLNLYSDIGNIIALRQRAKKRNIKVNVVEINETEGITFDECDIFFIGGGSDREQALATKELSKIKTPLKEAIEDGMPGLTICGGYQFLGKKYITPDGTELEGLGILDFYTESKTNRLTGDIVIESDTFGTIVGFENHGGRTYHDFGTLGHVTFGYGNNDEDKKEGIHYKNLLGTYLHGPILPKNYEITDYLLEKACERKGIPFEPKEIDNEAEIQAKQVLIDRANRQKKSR

[2] = biological target: T2, S. aureus GatD wt (from pET28a-murT-gatD-His6) (Staphylococcus aureus strain COL, UniProt A0A0H2WZ38 1-243); assay: co-purification (IMAC + SEC, SDS-PAGE); MurT and GatD-His6 co-expressed in E. coli from one plasmid; HisTrap then Superdex 200 in 100 mM Tris-HCl pH 8.2, 500 mM NaCl, 10 mM MgCl2, 5 mM 2-mercaptoethanol; molar ratio read from a 12% SDS-PAGE gel of the final samples; conditions: partners not purified
T2 construct: GatD, glutamine amidotransferase, Staphylococcus aureus strain COL, 243 amino acids; coding region amplified with murT as the murT-gatD operon; also called glutamine amidotransferase GatD
T2 sequence (looked up): T1 sequence (A0A0H2WZ38 1-243)

[3] = biological target: T3, S. aureus GatD C94A (from pET28a-murT-gatD-His6C94A) (Staphylococcus aureus strain COL, UniProt A0A0H2WZ38 1-243, C94A); assay: co-purification (IMAC + SEC, SDS-PAGE); conditions: partners not purified
T3 sequence: T1 sequence (A0A0H2WZ38 1-243) with C94A

[4] = biological target: T4, S. aureus GatD R128A (from pET28a-murT-gatD-His6R128A) (Staphylococcus aureus strain COL, UniProt A0A0H2WZ38 1-243, R128A); assay: co-purification (IMAC + SEC, SDS-PAGE); conditions: partners not purified
T4 sequence: T1 sequence (A0A0H2WZ38 1-243) with R128A

[5] = biological target: T5, S. aureus GatD H189A (from pET28a-murT-gatD-His6H189A) (Staphylococcus aureus strain COL, UniProt A0A0H2WZ38 1-243, H189A); assay: co-purification (IMAC + SEC, SDS-PAGE); conditions: partners not purified
T5 sequence: T1 sequence (A0A0H2WZ38 1-243) with H189A

Row | Molecule | 1H-NMR glutaminase assay (Gln to Glu) [1] | X-ray crystal structure, 1.85 Å (S. aureus GatD) | stoichiometry N [2] | stoichiometry N [3] | stoichiometry N [4] | stoichiometry N [5]
1 | NC(=O)CC[C@H](N)C(=O)O [glutamine] | MurT-GatD wt can convert glutamine into glutamate with a first order rate constant | S. aureus GatD crystallized in the presence of its substrate, glutamine |  |  |  | 
2 | B1 |  |  | 1 MurT:GatD molar ratio | 1 MurT:GatD molar ratio | 1 MurT:GatD molar ratio | 1 MurT:GatD molar ratio
